Reference: US20140072980A1 (Regeneron, published 2014)
Each block holds one binder with its values, some of them ahead of it.

Legend:
[1] = target: IgG1 Fc/Fc monospecific antibody; experiment: flow cytometry sandwich: antibody displayed on CHO cells by CSCP FcγR, detected with FITC-labeled Ab6; signal needs both capture and detection
[2] = target: IgG1 Fc*/Fc* monospecific antibody; experiment: as above
[3] = target: IgG1 Fc/Fc* bispecific antibody; experiment: as above
human Fc homodimer = target: T1, human Fc homodimer (human, UniProt P01861 120-325 = IgG part); experiment: SPR (Biacore 2000), antibody captured on anti-mouse-Fc surface, Fc dimer injected
T1 construct: His 95 and Tyr 96 (IMGT) in CH3; also called Fc/Fc; hFc
T1 sequence (P01861 other isoform, or with tags, fused parts or gaps limits assumed): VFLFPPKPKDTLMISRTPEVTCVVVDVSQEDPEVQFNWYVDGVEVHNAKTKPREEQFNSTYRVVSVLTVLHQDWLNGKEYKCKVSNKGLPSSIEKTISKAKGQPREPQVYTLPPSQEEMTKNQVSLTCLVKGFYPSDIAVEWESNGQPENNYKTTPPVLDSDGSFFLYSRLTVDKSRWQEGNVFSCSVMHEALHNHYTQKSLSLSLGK
Protocol: (§1) Measurements to determine binding affinities and kinetic constants were made on a Biacore 2000 instrument. Antibodies (each of Ab1-Ab8) were captured onto an anti-mouse-Fc sensor surface (Mab capture format), and human Fc (SEQ ID NO 26) homodimers, human Fc* homodimers (SEQ ID NO:42), or Fc/Fc* heterodimers were injected over the surface. Kinetic association (kₐ) and dissociation (kd) rate constants were determined by processing and fitting the data to a 1:1 binding model using Scrubber 2.0 curve fitting software.

[4] = target: IgG4 Fc*/Fc* monospecific antibody; experiment: flow cytometry sandwich: antibody displayed on CHO cells by CSCP ScFv-FcγR, hFc block, detected with FITC-labeled Ab6; signal needs both capture and detection
Protocol: (§2) The Ab2-derived anti-Fc-specific ScFv-FcγR surface capture system was tested for its ability to detect and enrich for cells that produce bispecific antibodies. To assess the ability to detect bispecific antibodies, which harbor the 95R/435R-96F/436F substitution in one of the CH3 domains (designated Fc*), various antibodies were expressed in the Ab2-derived anti-Fc-specific ScFv-FcγR surface capture cell line, using hFc as the blocking molecule, and a FITC-labeled Ab6 anti-Fc* antibody (e.g., mAb with HC of SEQ ID NO:40, and LC of SEQ ID NO:41) as the detection molecule. The Ab2-derived anti-Fc-specific ScFv-FcγR surface capture cell line was able to detect and distinguish the bispecific antibody (Fc/Fc*) over any Fc*/Fc* or Fc/Fc monospecific antibodies using the Fc*-specific Ab6 as the detection molecule (Table 4). The wildtype FcγR surface capture cell line was not able to distinguish between the Fc/Fc*, Fc*/Fc*, and Fc/Fc IgG4 species, since FcγR is unable to bind, or binds at very low affinity to IgG4.

[5] = target: IgG4 Fc/Fc* bispecific antibody; experiment: as above
Protocol: as §2

[6] = target: IgG4 Fc/Fc monospecific antibody; experiment: as above
Protocol: as §2

[7] = target: IgG1 Fc/Fc monospecific antibody; experiment: as above
Protocol: as §2

[8] = target: IgG1 Fc*/Fc* monospecific antibody; experiment: as above
Protocol: as §2

[9] = target: IgG1 Fc/Fc* bispecific antibody; experiment: as above
Protocol: as §2

human Fc* homodimer = target: T2, human Fc* homodimer (human); experiment: SPR (Biacore 2000), antibody captured on anti-mouse-Fc surface, Fc dimer injected, 1:1 fit
T2 construct: also called Fc*/Fc*; human ΔAdpFc polypeptide
Protocol: as §1

[10] = target: IgG4 Fc*/Fc* monospecific antibody; experiment: flow cytometry sandwich: antibody displayed on CHO cells by CSCP FcγR, detected with labeled Ab2; signal needs both capture and detection
[11] = target: IgG4 Fc/Fc* bispecific antibody; experiment: as above
[12] = target: IgG4 Fc/Fc monospecific antibody; experiment: as above
[13] = target: IgG1 Fc/Fc monospecific antibody; experiment: as above
[14] = target: IgG1 Fc/Fc* bispecific antibody; experiment: as above
[15] = target: IgG1 Fc/Fc monospecific antibody; experiment: flow cytometry sandwich: antibody displayed on CHO cells by CSCP ScFv*-FcγR, hFc block, detected with Alexa 488-labeled Ab2; signal needs both capture and detection
Protocol: (§3) Conversely, the Ab6-derived anti-Fc*-specific ScFv*-FcγR surface capture system was tested for its ability to detect and enrich for cells that produce bispecific antibodies. […] The Ab6-derived anti-Fc*-specific ScFv*-FcγR surface capture cell line was able to detect and distinguish the bispecific antibody (Fc/Fc*) over the Fc*/Fc* or Fc/Fc monospecific antibodies using the Fc-specific Ab2 as the detection molecule (Table 4). The FcγR surface capture cell line was not able to distinguish between the Fc/Fc*, Fc*/Fc*, and Fc/Fc IgG4 species.

[16] = target: IgG1 Fc*/Fc* monospecific antibody; experiment: as above
Protocol: as §3

[17] = target: IgG1 Fc/Fc* bispecific antibody; experiment: as above
Protocol: as §3

Mean Fluorescence Intensity (MFI) [1]: 200 MFI | Mean Fluorescence Intensity (MFI) [2]: 200 MFI | Mean Fluorescence Intensity (MFI) [3]: 200 MFI | binding result (human Fc homodimer): no binding | Mean Fluorescence Intensity (MFI) [4]: 15 MFI | Mean Fluorescence Intensity (MFI) [5]: 500 MFI | Mean Fluorescence Intensity (MFI) [6]: 15 MFI | Mean Fluorescence Intensity (MFI) [7]: 15 MFI | Mean Fluorescence Intensity (MFI) [8]: 15 MFI | Mean Fluorescence Intensity (MFI) [9]: 500 MFI | Kd (human Fc* homodimer): 679 pM | koff (human Fc* homodimer): 0.000593 s⁻¹ | kon (human Fc* homodimer): 873000 M⁻¹ s⁻¹ | t½ (human Fc* homodimer): 19 min
B1: Ab6 (antibody, mouse IgG2a, kappa, V domains shown)
VH: EVQLVESGGAIVKPGGSHRVSCEASGFTFSNAWMSWVRQAPGRGLEWVGRILSKTDGGTTDYAAPVKDRFTISRDDSKNMLFLQMDSLKIEDTAVYFCTTADFWSAYSSDYWGQGTLVTVSS
VL: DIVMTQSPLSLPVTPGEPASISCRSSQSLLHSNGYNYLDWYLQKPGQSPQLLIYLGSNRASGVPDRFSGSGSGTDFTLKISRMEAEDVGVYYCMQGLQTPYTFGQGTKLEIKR
notes: also called Fc*-specific Ab6; Ab6 anti-Fc* antibody

Mean Fluorescence Intensity (MFI) [10]: 200 MFI | Mean Fluorescence Intensity (MFI) [11]: 200 MFI | Mean Fluorescence Intensity (MFI) [12]: 200 MFI | Mean Fluorescence Intensity (MFI) [13]: 350 MFI | Mean Fluorescence Intensity (MFI) [14]: 500 MFI | Mean Fluorescence Intensity (MFI) [15]: 10 MFI | Mean Fluorescence Intensity (MFI) [16]: 10 MFI | Mean Fluorescence Intensity (MFI) [17]: 150 MFI
B2: Ab2 (antibody, V domains shown)
VH: QLQQSGAELAKPGASVKMSCKASGYTFTNYWIHWEKQRPEQGLEWIGYINPNTGHTEYNQKFKDKATLTADRSSSTAYMQLSSLTSEDSAVYFCARTYSGSSHFDYWGQGTTL
VL: DIVMTQTPVSLPVSLGDQASISCRSSQSLVHNNGDTFLHWYLQKPGQSPKLLIYKVSNRFSGVPDRFSGSGSGTDFTLKISRVEAEDLGVYFCSQTTLIPRTFGGGTKLEI
notes: From Velocimmune mice, captured by anti-mouse-Fc in SPR; also called Fc-specific Ab2; Ab2 anti-Fc antibody
